{"source": "patent US12104181B2", "about": "“Compositions and methods for treating viral infections targeting TRIM7” (THE BOARD OF REGENTS OF THE UNIVERSITY OF TEXAS SYSTEM, priority 2021, dated 2024)", "molecules": {"B1": {"name": "TRIM65: human RING type E3 ligase expressed from lentiviral vector (protein, UniProt Q6PJ69 2-517, looked up)", "E3 ubiquitin-protein ligase …": "AAQLLEEKLTCAICLGLYQDPVTLPCGHNFCGACIRDWWDRCGKACPECREPFPDGAELRRNVALSGVLEVVRAGPARDPGPDPGPGPDPAARCPRHGRPLELFCRTEGRCVCSVCTVRECRLHERALLDAERLKREAQLRASLEVTQQQATQAEGQLLELRKQSSQIQNSACILASWVSGKFSSLLQALEIQHTTALRSIEVAKTQALAQARDEEQRLRVHLEAVARHGCRIRELLEQVDEQTFLQESQLLQPPGPLGPLTPLQWDEDQQLGDLKQLLSRLCGLLLEEGSHPGAPAKPVDLAPVEAPGPLAPVPSTVCPLRRKLWQNYRNLTFDPVSANRHFYLSRQDQQVKHCRQSRGPGGPGSFELWQVQCAQSFQAGHHYWEVRASDHSVTLGVSYPQLPRCRLGPHTDNIGRGPCSWGLCVQEDSLQAWHNGEAQRLPGVSGRLLGMDLDLASGCLTFYSLEPQTQPLYTFHALFNQPLTPVFWLLEGRTLTLCHQPGAVFPLGPQEEVLS"}, "B2": {"name": "TRIM67: human RING type E3 ligase expressed from lentiviral vector (protein, UniProt Q6ZTA4 1-783, looked up)", "Tripartite motif-containing …": "MEEELKCPVCGSLFREPIILPCSHNVCLPCARTIAVQTPDGEQHLPQPLLLSRGSGLQAGAAAAASLEHDAAAGPACGGAGGSAAGGLGGGAGGGGDHADKLSLYSETDSGYGSYTPSLKSPNGVRVLPMVPAPPGSSAAAARGAACSSLSSSSSSITCPQCHRSASLDHRGLRGFQRNRLLEAIVQRYQQGRGAVPGTSAAAAVAICQLCDRTPPEPAATLCEQCDVLYCSACQLKCHPSRGPFAKHRLVQPPPPPPPPAEAASGPTGTAQGAPSGGGGCKSPGGAGAGATGGSTARKFPTCPEHEMENYSMYCVSCRTPVCYLCLEEGRHAKHEVKPLGAMWKQHKAQLSQALNGVSDKAKEAKEFLVQLKNILQQIQENGLDYEACLVAQCDALVDALTRQKAKLLTKVTKEREHKLKMVWDQINHCTLKLRQSTGLMEYCLEVIKENDPSGFLQISDALIKRVQVSQEQWVKGALEPKVSAEFDLTLDSEPLLQAIHQLDFIQMKCRVPPVPLLQLEKCCTRNNSVTLAWRMPPFTHSPVDGYILELDDGAGGQFREVYVGKETLCTIDGLHFNSTYNARVKAFNSSGVGPYSKTVVLQTSDVAWFTFDPNSGHRDIILSNDNQTATCSSYDDRVVLGTAAFSKGVHYWELHVDRYDNHPDPAFGVARASVVKDMMLGKDDKAWAMYVDNNRSWFMHCNSHTNRTEGGVCKGATVGVLLDLNKHTLTFFINGQQQGPTAFSHVDGVFMPALSLNRNVQVTLHTGLEVPTNLGRPKLSGN"}, "B3": {"name": "TRIM68: human RING type E3 ligase expressed from lentiviral vector (protein, UniProt Q6AZZ1 1-485, looked up)", "E3 ubiquitin-protein ligase …": "MDPTALVEAIVEEVACPICMTFLREPMSIDCGHSFCHSCLSGLWEIPGESQNWGYTCPLCRAPVQPRNLRPNWQLANVVEKVRLLRLHPGMGLKGDLCERHGEKLKMFCKEDVLIMCEACSQSPEHEAHSVVPMEDVAWEYKWELHEALEHLKKEQEEAWKLEVGERKRTATWKIQVETRKQSIVWEFEKYQRLLEKKQPPHRQLGAEVAAALASLQREAAETMQKLELNHSELIQQSQVLWRMIAELKERSQRPVRWMLQDIQEVLNRSKSWSLQQPEPISLELKTDCRVLGLREILKTYAADVRLDPDTAYSRLIVSEDRKRVHYGDTNQKLPDNPERFYRYNIVLGSQCISSGRHYWEVEVGDRSEWGLGVCKQNVDRKEVVYLSPHYGFWVIRLRKGNEYRAGTDEYPILSLPVPPRRVGIFVDYEAHDISFYNVTDCGSHIFTFPRYPFPGRLLPYFSPCYSIGTNNTAPLAICSLDGED"}, "B4": {"name": "TRIM72: human RING type E3 ligase expressed from lentiviral vector; listed twice (protein, UniProt Q6ZMU5 1-477, looked up)", "Tripartite motif-containing …": "MSAAPGLLHQELSCPLCLQLFDAPVTAECGHSFCRACLGRVAGEPAADGTVLCPCCQAPTRPQALSTNLQLARLVEGLAQVPQGHCEEHLDPLSIYCEQDRALVCGVCASLGSHRGHRLLPAAEAHARLKTQLPQQKLQLQEACMRKEKSVAVLEHQLVEVEETVRQFRGAVGEQLGKMRVFLAALEGSLDREAERVRGEAGVALRRELGSLNSYLEQLRQMEKVLEEVADKPQTEFLMKYCLVTSRLQKILAESPPPARLDIQLPIISDDFKFQVWRKMFRALMPALEELTFDPSSAHPSLVVSSSGRRVECSEQKAPPAGEDPRQFDKAVAVVAHQQLSEGEHYWEVDVGDKPRWALGVIAAEAPRRGRLHAVPSQGLWLLGLREGKILEAHVEAKEPRALRSPERRPTRIGLYLSFGDGVLSFYDASDADALVPLFAFHERLPRPVYPFFDVCWHDKGKNAQPLLLVGPEGAEA"}, "B5": {"name": "RNF144B: human RING type E3 ligase expressed from lentiviral vector (protein, UniProt Q7Z419 1-303, looked up)", "E3 ubiquitin-protein ligase …": "MGSAGRLHYLAMTAENPTPGDLAPAPLITCKLCLCEQSLDKMTTLQECQCIFCTACLKQYMQLAIREGCGSPITCPDMVCLNHGTLQEAEIACLVPVDQFQLYQRLKFEREVHLDPYRTWCPVADCQTVCPVASSDPGQPVLVECPSCHLKFCSCCKDAWHAEVSCRDSQPIVLPTEHRALFGTDAEAPIKQCPVCRVYIERNEGCAQMMCKNCKHTFCWYCLQNLDNDIFLRHYDKGPCRNKLGHSRASVMWNRTQVVGILVGLGIIALVTSPLLLLASPCIICCVCKSCRGKKKKHDPSTT", "modifications": "lentiviral expression", "notes": "human RING type E3 ligase expressed from lentiviral vector"}, "B6": {"name": "TRIM74: human RING type E3 ligase expressed from lentiviral vector (protein, UniProt Q86UV6 1-250, looked up)", "Tripartite motif-containing …": "MAWQVSLLELEDWLQCPICLEVFKESLMLQCGHSYCKGCLVSLSYHLDTKVRCPMCWQVVDGSSSLPNVSLAWVIEALRLPGDPEPKVCVHHRNPLSLFCEKDQELICGLCGLLGSHQHHPVTPVSTVCSRMKEELAALFSELKQEQKKVDELIAKLVKNRTRIVNESDVFSWVIRREFQELRHPVDEEKARCLEGIGGHTRGLVASLDMQLEQAQGTRERLAQAECVLEQFGNEDHHEFIWKFHSMASR", "modifications": "lentiviral expression", "notes": "as for B5"}, "B7": {"name": "TRIM75: human RING type E3 ligase expressed from lentiviral vector; listed twice (protein, UniProt A6NK02 1-468, looked up)", "Tripartite motif-containing …": "MAVAAALTGLQAEAKCSICLDYLSDPVTIECGHNFCRSCIQQSWLDLQELFPCPVCRHQCQEGHFRSNTQLGRMIEIAKLLQSTKSNKRKQEETTLCEKHNQPLSVFCKEDLMVLCPLCTQPPDHQGHHVRPIEKAAIHYRKRFCSYIQPLKKQLADLQKLISTQSKKPLELREMVENQRQELSSEFEHLNQFLDREQQAVLSRLAEEEKDNQQKLSANITAFSNYSATLKSQLSKVVELSELSELELLSQIKIFYESENESSPSIFSIHLKRDGCSFPPQYSALQRIIKKFKVEIILDPETAHPNLIVSEDKKRVRFTKRKQKVPGFPKRFTVKPVVLGFPYFHSGRHFWEIEVGDKSEWAIGICKDSLPTKARRPSSAQQECWRIELQDDGYHAPGAFPTPLLLEVKARAIGIFLDYEMGEISFYNMAEKSHICTFTDTFTGPLRPYFYVGPDSQPLRICTGTVCE"}}, "note": "Several values for one entry are separate records, joined by “and”; a condition that tells them apart may be missing. Identical values can stand only once.", "data": [{"test_system": "coxsackievirus B3 (CVB3-GFP)", "assay_type": "cell-based", "details": "HeLa cells, GFP-positive cells within RFP-positive gate, replicate R1", "values": [{"molecule": "B1", "Percent Infected R1": "56.8%"}, {"molecule": "B2", "Percent Infected R1": "58.9%"}, {"molecule": "B3", "Percent Infected R1": "62%"}, {"molecule": "B4", "Percent Infected R1": "60.2% and 88.1%"}, {"molecule": "B5", "Percent Infected R1": "93.9%"}, {"molecule": "B6", "Percent Infected R1": "71.6%"}, {"molecule": "B7", "Percent Infected R1": "66.8% and 89.7%"}]}, {"test_system": "coxsackievirus B3 (CVB3-GFP)", "assay_type": "cell-based", "details": "HeLa cells, replicate R1", "values": [{"molecule": "B1", "Z score R1": "−0.404"}, {"molecule": "B2", "Z score R1": "−0.378"}, {"molecule": "B3", "Z score R1": "−0.338"}, {"molecule": "B4", "Z score R1": "−0.361 and −0.01"}, {"molecule": "B5", "Z score R1": 0.07}, {"molecule": "B6", "Z score R1": "−0.216"}, {"molecule": "B7", "Z score R1": "−0.277 and 0.01"}]}]}
